Measurements taken from patent WO2005058967A2 (dated 2005).
Numbering of substitutions follows the chain as printed.

B1: humanized 7C10 VL 2 combined with humanized 7C10 VH 2 (antibody, human IgG1, V domains shown)
VH: QVQLQESGPGLVKPSETLSLTCTVSGYSITGGYLWNWIRQPPGKGLEWIGYISYDGTNNYKPSLKDRVTISRDTSKNQFSLKLSSVTAADTAVYYCARYGRVFFDYWGQGTLVTVSS
VL: DIVMTQSPLSLPVTPGEPASISCRSSQSIVHSNGNTYLQWYLQKPGQSPQLLIYKVSNRLYGVPDRFSGSGSGTDFTLKISRVEAEDVGVYYCFQGSHVPWTFGQGTKVEIK
notes: Human IgG1/kappa, cos7 supernatant; also called 7C10 hum 2 heavy chain with humanized 7C10 VL 2
B2: A2CHM Mab (antibody, V domains shown)
VH: B1 VH with T30S, R72V
VL: B1 VL
B3: humanized 7C10 VL 2 combined with humanized 7C10 VH 3 (antibody, human IgG1, V domains shown)
VH: B1 VH with T30S, R72V
VL: B1 VL
notes: Human IgG1/kappa, cos7 supernatant; also called 7C10 hum 3 heavy chain with humanized 7C10 VL 2

Experiments:
[1] = biological target: insulin/IGF-I hybrid receptor isoform A (Hybrid-RsA) (UniProt P08069); assay: displacement of 125I-IGF1 from immunocaptured Hybrid-RsA
[2] = biological target: T1, extracellular domain of human insulin-like growth factor-1 receptor (hIGF-IR) (human, UniProt P08069 31-935); assay: ELISA on coated soluble IGF-IR, cos7 supernatants
T1 construct: extracellular domain; also called hIGF1-R; Human Insulin-Like Growth Factor I soluble Receptor (R & D Systems #391-GR)

[3] = biological target: T1, extracellular domain of human …; assay: SPR (BIAcore X), antibody captured by anti-Fc on a CM5 chip, hIGF-IR extracellular domain as analyte at 12.5-200 nM, 25°C

| Molecule | binding result [2] | also measured |
| --- | --- | --- |
| monoclonal antibody 1H7 | – | IC50 [1]: < 50 nM |
| B1 | binds | – |
| B2 | – | Kd [3]: 0.86 nM |
| B3 | binds | – |
